Assay results taken from patent publication US20230277625A1.
Residue numbers refer to the chain shown, from its start. Names and notes keep the numbering of the source.

T1: Human IL-18Rα ectodomain (amino acids 19-329), biotinylated (human), Q13478
T1 chain: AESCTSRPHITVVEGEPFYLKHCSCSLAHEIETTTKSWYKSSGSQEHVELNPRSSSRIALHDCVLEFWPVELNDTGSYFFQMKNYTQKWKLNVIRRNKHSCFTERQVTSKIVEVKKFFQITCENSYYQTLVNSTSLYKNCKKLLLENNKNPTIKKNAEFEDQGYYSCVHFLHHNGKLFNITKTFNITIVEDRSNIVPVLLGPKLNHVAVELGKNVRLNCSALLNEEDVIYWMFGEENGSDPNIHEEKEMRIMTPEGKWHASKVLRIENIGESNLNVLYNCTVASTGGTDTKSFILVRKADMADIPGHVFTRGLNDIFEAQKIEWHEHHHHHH

B1: SEQ ID NO: 125 (human D2D IL-18 consensus hD2D-CS3), Q14116 37-193 (ligand)
chain: YFGKLESKLSVIRNLNGQVLFIDQGNRPLFADMESSDCRDNAPRTIFIISFYKDSQPRGLAVTISVKCEKISTLSCENKIISFKEMNPPDNIKDTKSDIIFFLRSVPGHDNKMQFESSSYEGYFLACEKERDLFKLILKKEDELGDRSIMFTVQNED
modifications: here or on the partner: biotin on the AviTag (BirA ligase)
B2: SEQ ID NO: 124 (human D2D IL-18 consensus hD2D-CS2), Q14116 37-193 (ligand)
chain: B1 chain with E34T, L60M
modifications: here or on the partner: biotin on the AviTag (BirA ligase)
B3: SEQ ID NO: 123 (human D2D IL-18 consensus hD2D-CS1), Q14116 37-193 (ligand)
chain: B1 chain with E34T, S35D, F51M, L60M
modifications: here or on the partner: biotin on the AviTag (BirA ligase)

Biological target: T1, Human IL-18Rα ectodomain (amino acids …)
Test: on-yeast binding isotherm (flow cytometry), drawn summary table, IL18Rα (KD)
Conditions: remark: other sources report otherwise

Kd | Binder
9.7 µM | B1
21 µM | B2
0.43 µM | B3
